Test results as given in the supplement of paper PMC6757056.
± gives the standard deviation of the averaged measurements.

B1: library; a variant is named by its letters at N, in order (parent)
chain: GCUGUCACCGGUGCUUGGUACGUUAUAUUCAGCCGGUCUGAUGAGUCUNNNNNNAGACGAAACAGC

What was measured:
(6R,S)-folinic acid [1] = variants of: B1; experiment: normalized RNA/DNA level without ligand (relative to sTRSVctl = 100) (log10 (% of sTRSVctl)); HEK293T overexpressing SLC46A1; higher = less ribozyme self-cleavage, higher mRNA level; conditions: without (6R,S)-folinic acid; ligand present: no
Procedure, shortened: (§1)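 Ribozyme switch library plasmids with mCherry reporters (eGFP in certain ligand experiments) went into HEK293T cells at 4 µg per 6-well well. Where ligand was used, it was applied 1 h before transfection, and total RNA was extracted with EDTA 72 h later for reverse transcription, amplification, barcoding and sequencing. RNA level is the RNA-to-DNA read ratio normalized to a spiked-in non-cleaving sequence or to the leading sequences, then scaled and log-transformed. Scaling was ×100 with log10, the leading set comprised 25 sequences, and the cutoff was ≥100 DNA reads.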

(6R,S)-folinic acid [2] = variants of: B1; experiment: normalized RNA/DNA level with ligand (relative to sTRSVctl = 100) (log10 (% of sTRSVctl)); HEK293T overexpressing SLC46A1; ligand concentration (+) RNA-Seq: 6 mM; higher = less ribozyme self-cleavage, higher mRNA level; conditions: with (6R,S)-folinic acid; ligand present: yes
Procedure, shortened: as §1

Variant	normalized RNA/DNA level without ligand (log10) ((6R,S)-folinic acid [1])	normalized RNA/DNA level with ligand (log10) ((6R,S)-folinic acid [2])
GGUAGG	1.933 ± 0.013	1.99 ± 0.042
GGUAGA	1.995 ± 0.01	2.01 ± 0.022
AGGUCA	1.967 ± 0.014	2.01 ± 0.047
AGGUCU	2.043 ± 0.0045	2 ± 0.021
AGGUCG	1.985 ± 0.013	2.05 ± 0.043
AGUCCU	2.048 ± 0.0074	2.05 ± 0.029
AGUCCA	2.022 ± 0.0089	2.0202 ± 0.002
AGUCCG	1.988 ± 0.0076	2 ± 0.025
AGUCCC	2.019 ± 0.0039	2.046 ± 0.0072
GGUGCG	2.0178 ± 0.0012	2.05 ± 0.035
GGUGCC	2.029 ± 0.0081	2.03 ± 0.039
AGGUGC	2.0042 ± 0.0006	2.01 ± 0.044
UGUAAC	1.95 ± 0.034	1.99 ± 0.038
GGUACG	2.025 ± 0.017	2.04 ± 0.049
GGUACU	2.063 ± 0.0044	2.04 ± 0.022
GGUACC	2.067 ± 0.015	2.03 ± 0.04
UGUGAC	1.949 ± 0.007	1.99 ± 0.016
UGUGAU	1.903 ± 0.016	2 ± 0.027
AGUAAG	1.897 ± 0.0041	2.01 ± 0.057
AGUAAC	2.003 ± 0.0042	2.01 ± 0.026
AGUAAU	1.99 ± 0.02	2 ± 0.026
GGUAUC	2.011 ± 0.008	2.0104 ± 0.001
GGUAUU	2.002 ± 0.014	1.98 ± 0.032
AGUAUA	1.9846 ± 0.0011	2.02 ± 0.0084

Variant	normalized RNA/DNA level without ligand (log10) ((6R,S)-folinic acid [1])	normalized RNA/DNA level with ligand (log10) ((6R,S)-folinic acid [2])
AGUAUC	2.059 ± 0.0016	2.03 ± 0.0073
AGUAUU	2 ± 0.011	2.032 ± 0.018
CGGUGG	1.93 ± 0.024	1.99 ± 0.026
CGGUGC	2.053 ± 0.0063	2.007 ± 0.0042
CGGUGA	2.029 ± 0.014	2.04 ± 0.043
UGUACA	1.958 ± 0.018	2 ± 0.051
UGUACC	2.019 ± 0.0028	2.03 ± 0.057
UGUACG	1.772 ± 0.0054	1.98 ± 0.038
AGUGAC	2.006 ± 0.0076	1.99 ± 0.04
AGUGAA	1.933 ± 0.0071	1.99 ± 0.033
AGUGAG	1.767 ± 0.0046	1.96 ± 0.028
CGUGCA	2.01 ± 0.022	2.03 ± 0.021
CGUGCU	2.05 ± 0.012	2.05 ± 0.052
CGUGCC	2.068 ± 0.0025	2.01 ± 0.036
CGUGCG	1.974 ± 0.0043	1.99 ± 0.031
UGGGUC	2.11 ± 0.022	2.06 ± 0.034
UGGGUA	1.892 ± 0.0053	1.98 ± 0.053
UGGGUU	1.9881 ± 0.0019	2.018 ± 0.016
UGUCAU	1.955 ± 0.0075	2 ± 0.034
UGUCAC	2.03 ± 0.015	2.01 ± 0.021
UGUCAA	1.968 ± 0.018	2.002 ± 0.014
UGUCAG	1.771 ± 0.011	2 ± 0.026
CGUGUU	2.001 ± 0.016	2.03 ± 0.057
CGUGUC	2.0808 ± 0.0006	2.07 ± 0.043

Variant	normalized RNA/DNA level without ligand (log10) ((6R,S)-folinic acid [1])	normalized RNA/DNA level with ligand (log10) ((6R,S)-folinic acid [2])
CGUGUA	1.981 ± 0.009	2 ± 0.028
CGUGUG	1.972 ± 0.015	1.99 ± 0.032
UGUUAU	1.95 ± 0.028	1.975 ± 0.0073
AGGUUC	2.02 ± 0.024	2.03 ± 0.045
AGGUUG	2.005 ± 0.013	2.04 ± 0.053
GGGGUU	2.014 ± 0.0056	2.02 ± 0.034
GGGGUG	1.997 ± 0.011	2.061 ± 0.019
GGGGUA	1.988 ± 0.0044	1.99 ± 0.028
GGGGUC	2.023 ± 0.0058	2.04 ± 0.048
UGUAGU	1.903 ± 0.015	2.06 ± 0.059
UGUAGA	1.84 ± 0.021	2.002 ± 0.017
AGUGUG	1.78 ± 0.018	1.97 ± 0.01
AGUGUA	1.942 ± 0.007	2 ± 0.05
AGUGUC	2.054 ± 0.0091	2 ± 0.046
AGUGUU	2.026 ± 0.011	2.04 ± 0.027
CGUAAC	1.98 ± 0.025	1.99 ± 0.043
CGUAAG	2.011 ± 0.0091	2.03 ± 0.018
UGUGUU	1.907 ± 0.019	1.966 ± 0.019
UGUGUC	2.041 ± 0.019	2.004 ± 0.012
CGUCAU	2.01 ± 0.047	2 ± 0.021
CGUCAG	2.001 ± 0.013	2.057 ± 0.013
CGUCAA	1.98 ± 0.022	1.974 ± 0.018
CGUCAC	2.032 ± 0.0083	1.99 ± 0.049
CGUUAU	1.977 ± 0.0039	2.005 ± 0.016

Variant	normalized RNA/DNA level without ligand (log10) ((6R,S)-folinic acid [1])	normalized RNA/DNA level with ligand (log10) ((6R,S)-folinic acid [2])
CGUUAG	2.009 ± 0.0098	2.031 ± 0.006
CGUUAC	2.037 ± 0.015	2.01 ± 0.037
UGUCUC	2.06 ± 0.022	2.052 ± 0.02
UGUCUU	1.978 ± 0.016	2.03 ± 0.022
UGUCUA	1.991 ± 0.0035	2.02 ± 0.043
CGGUAC	2.0071 ± 0.0016	1.992 ± 0.0076
CGGUAG	1.93 ± 0.025	1.963 ± 0.018
CGGUAU	1.976 ± 0.0076	2.003 ± 0.013
CGUAUG	2.016 ± 0.012	2.01 ± 0.016
CGUAUC	2.09 ± 0.0065	2.07 ± 0.023
CGGGUG	1.976 ± 0.0081	2.01 ± 0.047
CGGGUU	2 ± 0.024	2 ± 0.051
CGGGUC	2.078 ± 0.0029	2.06 ± 0.038
UGUCCU	2.03 ± 0.034	2.07 ± 0.026
UGUCCG	1.86 ± 0.022	1.99 ± 0.033
UGUCCC	2.06 ± 0.024	2.033 ± 0.017
CGUGAG	1.97 ± 0.029	1.99 ± 0.028
CGUGAU	1.96 ± 0.0081	1.993 ± 0.0086
CGUCCU	2.11 ± 0.011	2.06 ± 0.031
CGUCCA	2.0366 ± 0.0014	2.02 ± 0.035
CGUCCG	2.04 ± 0.026	2.037 ± 0.015
CGUCCC	2.003 ± 0.0083	1.95 ± 0.037
AGUCGC	2.012 ± 0.015	1.98 ± 0.031
AGUCGG	1.938 ± 0.0053	2 ± 0.053

Variant	normalized RNA/DNA level without ligand (log10) ((6R,S)-folinic acid [1])	normalized RNA/DNA level with ligand (log10) ((6R,S)-folinic acid [2])
UGGUUA	1.945 ± 0.013	2.01 ± 0.071
UGGUUU	1.95 ± 0.021	1.97 ± 0.026
UGGUUC	2.01 ± 0.011	2.01 ± 0.081
GGUCUG	2.081 ± 0.0057	2.06 ± 0.061
GGUCUC	2.0526 ± 0.0017	2.06 ± 0.026
GGUCUU	2.02 ± 0.027	2.01 ± 0.032
GGUCUA	2.01 ± 0.021	2.03 ± 0.029
AGUCAC	2.02 ± 0.024	2.02 ± 0.026
AGUCAU	1.998 ± 0.0079	2.0062 ± 1.5e-05
AGUCAG	1.975 ± 0.016	2.02 ± 0.042
AGUGGG	1.921 ± 0.019	2.04 ± 0.035
AGUGGC	2.042 ± 0.01	2.04 ± 0.06
AGUGGU	1.95 ± 0.013	2.02 ± 0.049
CGGGCG	1.993 ± 0.005	2.04 ± 0.043
CGGGCU	2.09 ± 0.021	2.06 ± 0.03
CGGGCC	2.072 ± 0.0092	2.035 ± 0.019
CGUCGU	2.04 ± 0.032	2 ± 0.03
CGUCGC	2.06 ± 0.037	2 ± 0.092
CGUCGG	2.01 ± 0.026	2.08 ± 0.049
CGUCGA	2.012 ± 0.0023	2.019 ± 0.019
